The subject of the data set is ATP. The experiment in a line: switch fluorescence ratio, 500 uM ATP over buffer (Cy3 cluster intensity, sum of 5 cycles each) (fold (ratio)); higher = stronger signal-on switching upon ATP binding; sequences stand for … in TCGTCGGCAGCGTCAGATGTGTATAAGAGACAGTTTTTTTTTTTTTTTTTTTTTTTTT…TC. To be noted: aptamer strand: ATP DNA aptamer (quencher-CACCTGGGGGAGTATTGCGGAGGAAGG + anchor), 100 nM annealed; ATP concentration: 500 uM. The essentials: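 Cy3-labelled switching-strand clusters on a modified Illumina MiSeq flow-cell were annealed to 100 nM quencher-labelled ATP aptamer and imaged first in selection buffer, then after 15 min with 500 uM ATP at 22 °C. NaOH stripping and re-annealing separated each of five buffer/ATP cycles, and clusters outside 100-1000 RFU were excluded. The fluorescence ratio sums target-cycle Cy3 intensity over buffer-cycle Cy3 intensity per cluster and averages it per switch-domain sequence.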

± gives the standard deviation of the averaged measurements.
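Also: ATP exposure 15 min at 22 °C before imaging.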

As for CGGGGGTGTC, the switch fluorescence ratio is 0.998 ± 0.026. As for CGGGGGTTCG, the figure is 1.05 ± 0.057. With CGGGGGTTGT the figure was 0.963 ± 0.036; with CGGGGTAAGT, 1.01 ± 0.021. As for CGGGGTAATG, the figure is 0.979 ± 0.012; as for CGGGGTACGT, 0.985 ± 0.027. On to CGGGGTAGCG, for which the switch fluorescence ratio is 0.965 ± 0.013. Take CGGGGTATAG: the switch fluorescence ratio amounted to 1.37 ± 0.52.

Take CGGGGTCGCC: the switch fluorescence ratio worked out at 0.984 ± 0.021. As to CGGGGTGAAT, the switch fluorescence ratio is 1.022 ± 0.0052. In the case of CGGGGTGAGG, the switch fluorescence ratio was found to be 0.997 ± 0.014. In the case of CGGGGTGCTT, the switch fluorescence ratio turned out to be 1.01 ± 0.012. With CGGGGTGGTA, the switch fluorescence ratio turned out to be 0.9873 ± 0.0069. For the sequence CGGGGTTGGG, the switch fluorescence ratio stood at 1.01 ± 0.047. For the sequence CGGGGTTTTG, the switch fluorescence ratio worked out at 1.014 ± 0.0068. With CGGGTAAAGG the figure was 0.9441 ± 0.0076; with CGGGTACTAG, 1.02 ± 0.044; with CGGGTAGCT, 1.01 ± 0.03. As for CGGGTAGTTA, the figure is 0.99 ± 0.029; as for CGGGTATGCC, 0.96 ± 0.0098. As for CGGGTCCAGC, the switch fluorescence ratio is 1.01 ± 0.033.

With CGGGTCGGCA, the switch fluorescence ratio was found to be 1.03 ± 0.017. As for CGGGTCGTGC, the figure is 1.03 ± 0.013. As for CGGGTGATTC, the figure is 1.04 ± 0.021; as for CGGGTGCACT, 0.98 ± 0.027; as for CGGGTGTAGT, 1.03 ± 0.024.

Regarding CGGGTGTATC, the switch fluorescence ratio amounted to 1.03 ± 0.046. As for CGGGTGTGGA, the figure is 1.05 ± 0.04; as for CGGGTGTTCG, 1.02 ± 0.075; as for CGGGTTAAGT, 1.03 ± 0.11. With CGGGTTAAT the figure was 1 ± 0.041; with CGGGTTATAA, 1.04 ± 0.022; with CGGGTTATGG, 0.981 ± 0.049. For the sequence CGGGTTCTAT, the switch fluorescence ratio was 0.977 ± 0.036.

On to CGGGTTGCCC, for which the switch fluorescence ratio came to 1 ± 0.012. As for CGGGTTGCGG, the figure is 0.9508 ± 0.009; as for CGGGTTTAAC, 0.998 ± 0.021.

Regarding CGGGTTTGAC, the switch fluorescence ratio was 0.984 ± 0.047.

Consider CGGGTTTTAT, for which the switch fluorescence ratio amounted to 1.01 ± 0.028. Regarding CGGTAAATAA, the switch fluorescence ratio was determined as 1.01 ± 0.021.

With CGGTAAGGCG, the switch fluorescence ratio was found to be 0.947 ± 0.11. As for CGGTAATCGG, the figure is 0.988 ± 0.01. Regarding CGGTAATGTG, the switch fluorescence ratio was determined as 1.03 ± 0.035. With CGGTAATTTT the figure was 0.975 ± 0.021. Consider CGGTACCATC, for which the switch fluorescence ratio was determined as 1.02 ± 0.013. With CGGTAGTGCG the figure was 0.975 ± 0.021. As to CGGTCAGGGT, the switch fluorescence ratio amounted to 0.995 ± 0.015.

Consider CGGTCATTTT, for which the switch fluorescence ratio came out at 0.998 ± 0.033. For CGGTCCACGA, the switch fluorescence ratio was found to be 1.022 ± 0.0017.

As for CGGTCGAGGT, the switch fluorescence ratio stood at 0.993 ± 0.038.

For CGGTCGGGGA, the switch fluorescence ratio was 1 ± 0.043. As for CGGTCGGTGT, the figure is 0.982 ± 0.022; as for CGGTCTAATT, 0.9989 ± 0.0027. With CGGTCTATGC the figure was 1.12 ± 0.035; with CGGTCTCCGG, 1.03 ± 0.012; with CGGTCTGTTC, 0.994 ± 0.052.

For CGGTGAAATG, the switch fluorescence ratio worked out at 0.975 ± 0.017. With CGGTGAGGCT, the switch fluorescence ratio is 0.984 ± 0.017. With CGGTGAGTGT the figure was 0.9608 ± 0.0063. As for CGGTGATCGG, the figure is 0.996 ± 0.013; as for CGGTGCCGGT, 0.9841 ± 0.0091.

CGGTGCGGGT: the switch fluorescence ratio is 0.992 ± 0.016.

Consider CGGTGCGGTG, for which the switch fluorescence ratio was determined as 0.981 ± 0.013.

With CGGTGGAATC, the switch fluorescence ratio amounted to 1.36 ± 0.45. Consider CGGTGGCGTC, for which the switch fluorescence ratio was 1.01 ± 0.048.

In the case of CGGTGGGGAT, the switch fluorescence ratio was 1.02 ± 0.046. As for CGGTGGGGCG, the figure is 1 ± 0.034; as for CGGTGGGGT, 1.035 ± 0.0064. For CGGTGGGTCT, the switch fluorescence ratio turned out to be 1.006 ± 0.0015. With CGGTGGGTTA the figure was 0.985 ± 0.025; with CGGTGGTGTG, 0.963 ± 0.048; with CGGTGGTTGA, 1.01 ± 0.053. With CGGTGTAAAA the figure was 0.961 ± 0.011; with CGGTGTCAGC, 1.012 ± 0.0059. As for CGGTTAAAAT, the figure is 0.989 ± 0.023. On to CGGTTAGCGG, for which the switch fluorescence ratio worked out at 0.983 ± 0.044. As for CGGTTAGGCT, the figure is 1.06 ± 0.012. As for CGGTTATCGC, the figure is 1.03 ± 0.052; as for CGGTTATGGT, 0.99 ± 0.022. As for CGGTTCGGGC, the figure is 0.983 ± 0.023; as for CGGTTCTGTA, 1.01 ± 0.027; as for CGGTTCTTGA, 0.995 ± 0.038. With CGGTTGACGT, the switch fluorescence ratio was 1.01 ± 0.013. As for CGGTTGAGTA, the figure is 0.9982 ± 0.0043; as for CGGTTGGCGT, 1.04 ± 0.088. As to CGGTTGGGGT, the switch fluorescence ratio was determined as 0.989 ± 0.0088. With CGGTTGTTGA the figure was 1.01 ± 0.031; with CGGTTGTTGT, 1.01 ± 0.021. As for CGGTTTAAGT, the figure is 0.993 ± 0.028; as for CGGTTTAGGA, 0.988 ± 0.028. In the case of CGGTTTCCGC, the switch fluorescence ratio was 1.04 ± 0.022. With CGGTTTCTGT the figure was 0.9814 ± 0.0092. As for CGGTTTGGTA, the figure is 0.976 ± 0.014.

For the sequence CGGTTTGTTA, the switch fluorescence ratio was determined as 0.985 ± 0.037.

Turning to CGGTTTGTTT, the switch fluorescence ratio is 0.987 ± 0.04.

Turning to CGGTTTTATA, the switch fluorescence ratio is 0.9619 ± 0.0088. For CGTAAAAAAT, the switch fluorescence ratio was found to be 0.986 ± 0.068.

Turning to CGTAACATGG, the switch fluorescence ratio came to 1.022 ± 0.0099. As for CGTAACCCGT, the figure is 0.98 ± 0.033; as for CGTAACCTTA, 1.05 ± 0.15; as for CGTAACTAGG, 1.02 ± 0.03. As for CGTAACTGTG, the figure is 1.07 ± 0.043; as for CGTAAGCGTA, 1.04 ± 0.032; as for CGTAAGGGGG, 1.02 ± 0.035. CGTAATTATG: the switch fluorescence ratio is 1.01 ± 0.03. With CGTAATTGCC the figure was 1.002 ± 0.008; with CGTAATTTGA, 1.02 ± 0.047. With CGTACAATGG the figure was 1.28 ± 0.088; with CGTACAGGGG, 1.207 ± 0.004.

In the case of CGTACGGGTG, the switch fluorescence ratio was 1 ± 0.014.

As for CGTACGGTAA, the switch fluorescence ratio turned out to be 1.09 ± 0.042.

On to CGTACGTGCA, for which the switch fluorescence ratio stood at 1.02 ± 0.032. Consider CGTACTGTAA, for which the switch fluorescence ratio was 1.18 ± 0.03. As to CGTAGAGCGA, the switch fluorescence ratio was determined as 1.03 ± 0.015. In the case of CGTAGCGGTA, the switch fluorescence ratio was found to be 1.53 ± 0.098. Consider CGTAGCTTAG, for which the switch fluorescence ratio was determined as 1.25 ± 0.13. As to CGTAGGAAGA, the switch fluorescence ratio worked out at 1.02 ± 0.048. As for CGTAGGAATT, the switch fluorescence ratio is 1.07 ± 0.015. With CGTAGGAGGG the figure was 0.997 ± 0.04; with CGTAGGGGTC, 0.959 ± 0.042.
